Results reported in publication PMC8528929.
Numbering of substitutions follows the chain as printed.

B1: 12H2 (antibody, V domains shown)
VH: EVQLQESGPGLVKPSQSLFLTCTVTGYSITSDYAWNWIRQFPGNKLEWMGYITYSGSTSYNPSLKSRISITRDTSKNQFFLQLNSVTTEDTATYYCARGDGYFFPLDYWGQGTTLTVSS
VL: DIVMTQSPSSLSVSAGEKVTMSCKSSQSLLNSGNQKSYLAWYQQRPGQPPKLLIYGASTRESGVPDRFTGSGSGTDFTLTISSVQAEDLAVYYCQNDHSYPPTFGAGTKLELK
B2: 13I1 (antibody, V domains shown)
VH: B1 VH with F19S, K65R, T88S, F103Y
VL: B1 VL with S32G, R45K

Molecular target: biotinylated SARS-CoV-2 RBD (SARS-CoV-2) (UniProt P0DTC2)
Experiment: flow cytometry on antigen-coated beads

| Binder | EC50 |
| --- | --- |
| B1 | 0.066 nM |
| B2 | 0.082 nM |
